Assay results from the Human Domainome abundance scans (Beltran et al. 2025).

B1: Max-interacting protein 1, residues 70 to 120; numbered along this chain, P50539 (parent)
chain: STHNELEKNRRAHLRLCLERLKVLIPLGPDCTRHTTLGLLNKAKAHIKKLE

Variants of: B1
Experiment: abundance fitness (aPCA) (normalised: wild type 0, dead -1); higher = more abundant; growth selection in yeast, the domain comes from the species named
Details: Homo sapiens

Abundance fitness: each site, then its substitutions
A12: D -0.438 | S 0.018 | T 0.124 | N -0.185 | G -0.063 | E -0.432 | V -0.438 | F -0.826
L50: G -0.317 | K -0.342 | Q -0.377 | F 0.259
P29: Y 0.256 | N -0.106 | A 0.466 | C 0.181 | S 0.359 | I 0.506
N4: P -0.276 | M -0.289 | F -0.713 | K -0.168
C17: I -0.617 | P -0.232 | R -0.729 | E -0.681 | G -0.402 | V 0.061 | H -0.683 | Y -0.284 | L 0.101
K42: E -0.716 | A -0.319 | N -0.598 | M -0.452 | Y -0.684 | P -0.808
R20: M -1 | N -0.335 | I -1.11 | V -0.797
L39: N -1 | E -0.597 | Q -0.894 | V -0.257 | T -0.535
I47: A -0.582 | R -0.707 | D -0.761 | Y -0.137 | C -0.524 | V -0.312 | K -0.858 | N -0.702
T32: K -0.239 | D -0.387 | V 0.341 | G 0.012 | L 0.374
R10: L -0.076 | P 0.298 | N -0.18 | T 0.309 | Q -0.219 | S -0.217 | I -0.289 | V -0.101 | E -0.71
K48: C -0.311 | W -0.31 | L -0.802 | F -0.093 | G -0.479 | H -0.74 | D -0.65 | V -0.846 | I -0.351 | P -0.643
L6: Y -0.277 | Q 0.18 | A -0.171 | C -0.123 | K -0.086 | M -0.247 | G 0.203
L18: H -1.12 | Y -0.305 | M -0.405 | I -0.295 | K -0.515 | T -0.824 | R -0.652
H46: K 0.186 | N -0.394 | W 0.216 | S 0.237 | E -0.527 | A 0.157 | F -0.456 | I -0.26
H13: Q -0.086 | K 0.26 | F -0.076 | I -0.447 | V -0.339 | D -0.604 | N 0.093
G38: V -0.242 | H -0.168 | L -0.326 | M 0.118 | W -0.265 | S -0.087 | C -0.229 | K 0.081
I25: V -0.062 | P -0.334 | W 0.319 | K -0.995
C31: I 0.167 | F 0.007 | N 0.185 | R 0.203 | Q 0.072 | L 0 | E -0.206
K8: L -0.232 | I -0.536 | G -0.043 | N -0.328 | A -0.386 | C -0.278 | H -0.205 | P -0.451
N41: S -0.09 | A -0.218 | D -0.322
L14: G -0.265 | C -0.315 | V -0.356 | Y 0.111 | S -0.299
E19: R -0.513 | D -0.252 | N 0.202 | Y -0.79 | C -0.618 | W -0.782 | L -0.791 | V -0.999 | F -0.623
K22: N -0.572 | I -1.21 | S -0.536 | R -0.121 | W -1.08 | C -0.871
K49: H -1.02 | Q -0.679 | I -0.81 | N -0.594 | D -1.07 | S -0.278
L21: H -0.335 | D -1.23 | I -0.144 | G -0.957 | C -0.503 | S -0.915 | A -0.547 | M -0.358 | Q -0.495 | F -0.398
G28: W 0.199 | S 0.003 | M 0.074 | V 0.273 | Y 0.133
R15: L -0.432 | E -0.476 | Q -0.369 | K 0.143 | N -0.777 | C -0.801 | S -0.231 | G -0.383 | F -0.269 | Y -0.941
A45: D -0.617 | K -0.057 | Q 0.085 | L -0.097 | C -0.25 | P -0.631 | R -0.167 | N -0.023 | I 0.043
E51: F 0.332 | Q -0.198 | N 0.504 | A 0.495
L24: D -1 | W 0.244 | C -0.013 | M -0.292 | V -0.193 | Q -0.569
P26: C -0.157 | E -0.138 | Y -0.626 | W -0.525
S1: E -0.48 | W -0.916 | C -0.216 | D -0.475 | N -0.158 | R -0.573
A43: S -0.652 | Y -0.918 | V -0.046 | D -0.634 | F -0.182 | T -0.339
R11: L -0.062 | H -0.13 | F -0.396 | Q -0.281 | P -0.105 | C -0.256
T2: D -0.209 | N 0.128 | K 0.002 | M -0.63 | G -0.69 | A -0.303 | Y -0.088
L37: E -0.344 | V -0.023 | G -0.107 | D -0.375 | C -0.244 | W 0.125 | P -0.624
H3: S 0.065 | Y -0.078 | D 0.023 | C 0.021 | G 0.197 | V -0.053 | P 0.018
D30: V 0.223 | S 0.279 | Y -0.007 | M 0.118 | I 0.151 | Q 0.147 | E -0.134
E5: D -0.021 | C -0.991 | Y -0.069 | T -0.006 | N 0.282 | K -0.232 | S -0.205 | G -0.244
H34: T -0.103 | S 0.047 | Q -0.028 | V 0.019 | L 0.081 | C -0.063 | Y -0.406 | K 0.39
V23: D -0.127 | G 0.355 | A 0.488 | T 0.274 | Y -0.062 | C 0.287 | R 0.316
L27: H -0.146 | V -0.009 | S 0.166 | R 0.308 | I -0.004 | C -0.573 | M -0.031
T35: G -0.031 | A 0.213 | R 0.225 | L -0.017 | E -0.508 | H -0.023 | Q -0.176
L16: C -0.247 | W 0.07 | E 0.102 | D -0.037 | F -0.207 | I -0.133 | N -0.069 | K 0.022
L40: V -0.099 | S -0.91 | T -0.68 | H -0.86 | F 0.033 | W 0.323 | K -0.793 | E -0.857 | R -0.698
E7: A -0.263 | Q -0.169 | N 0.176 | I -0.479 | Y -0.205 | S 0.06 | T -0.468
T36: P -0.107 | F 0.155 | E -0.487 | R -0.19 | N -0.183 | A 0.138 | H -0.176
R33: V -0.293 | I -0.691 | C -0.365 | M -0.394 | S -0.44 | A -0.338 | Y -0.107 | E -0.667 | K -0.117
